Source: article PMC2756588

T1: Hse1, P38753
T1 sequence (P38753 208-285, looked up): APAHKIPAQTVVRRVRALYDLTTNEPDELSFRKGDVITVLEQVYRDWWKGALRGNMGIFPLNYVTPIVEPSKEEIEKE

T2: Bud14, P27637
T2 sequence (P27637 247-328, looked up): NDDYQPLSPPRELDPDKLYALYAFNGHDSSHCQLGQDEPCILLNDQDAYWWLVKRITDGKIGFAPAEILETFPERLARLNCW

T3: Lsb1, P53281
T3 sequence (P53281 45-122, looked up): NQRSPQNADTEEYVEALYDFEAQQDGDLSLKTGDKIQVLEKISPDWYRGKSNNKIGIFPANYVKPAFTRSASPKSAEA

T4: Nbp2, Q12163
T4 sequence (Q12163 103-180, looked up): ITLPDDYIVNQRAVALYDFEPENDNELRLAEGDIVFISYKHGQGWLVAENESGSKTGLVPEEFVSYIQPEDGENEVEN

T5: Abp1, P15891
T5 sequence (P15891 535-592, looked up): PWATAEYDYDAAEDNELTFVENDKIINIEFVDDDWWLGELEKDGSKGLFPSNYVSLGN

T6: Fus1, P11710
T6 sequence (P11710 432-512, looked up): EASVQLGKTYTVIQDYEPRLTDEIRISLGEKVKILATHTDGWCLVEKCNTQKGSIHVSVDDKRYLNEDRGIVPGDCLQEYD

T7: Myo5, Q04439
T7 sequence (Q04439 1072-1160, looked up): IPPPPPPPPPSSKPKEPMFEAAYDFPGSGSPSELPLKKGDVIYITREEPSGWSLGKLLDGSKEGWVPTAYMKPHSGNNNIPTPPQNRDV

T8: Lsb3, P43603
T8 sequence (P43603 385-451, looked up): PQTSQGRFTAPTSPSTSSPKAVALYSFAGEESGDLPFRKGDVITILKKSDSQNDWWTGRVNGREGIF

T9: Boi1, P38041
T9 sequence (P38041 1-86, looked up): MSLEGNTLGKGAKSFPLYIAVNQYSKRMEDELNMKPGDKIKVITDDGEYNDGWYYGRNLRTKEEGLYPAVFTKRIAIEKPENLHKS

T10: Bbc1, P47068
T10 sequence (P47068 1-78, looked up): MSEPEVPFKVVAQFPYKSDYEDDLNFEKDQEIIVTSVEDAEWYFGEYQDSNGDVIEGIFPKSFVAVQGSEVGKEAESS

T11: Hof1, Q05080
T11 sequence (Q05080 590-669, looked up): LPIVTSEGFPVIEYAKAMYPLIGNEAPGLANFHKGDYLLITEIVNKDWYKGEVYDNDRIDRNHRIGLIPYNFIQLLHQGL

T12: Bzz1-2, P38822
T12 sequence (P38822 568-633, looked up): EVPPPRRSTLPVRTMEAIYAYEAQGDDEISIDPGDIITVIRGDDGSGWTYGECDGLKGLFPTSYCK

T13: Pex13, P80667
T13 sequence (P80667 295-386, looked up): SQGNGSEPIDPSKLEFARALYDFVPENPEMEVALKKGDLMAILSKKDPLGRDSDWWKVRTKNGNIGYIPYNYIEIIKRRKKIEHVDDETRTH

T14: Lsb4, P32793
T14 sequence (P32793 402-468, looked up): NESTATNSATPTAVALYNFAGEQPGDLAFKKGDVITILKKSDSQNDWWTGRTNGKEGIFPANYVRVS

T15: Sla1-3, P32790
T15 sequence (P32790 344-424, looked up): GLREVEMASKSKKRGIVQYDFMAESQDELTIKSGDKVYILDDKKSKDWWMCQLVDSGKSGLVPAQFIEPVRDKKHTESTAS

T16: Bzz1-1, P38822
T16 sequence (P38822 478-572, looked up): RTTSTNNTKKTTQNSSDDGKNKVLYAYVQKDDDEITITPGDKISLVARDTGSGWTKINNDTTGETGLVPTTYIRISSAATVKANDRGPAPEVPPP

T17: Sla1-2, P32790
T17 sequence (P32790 60-140, looked up): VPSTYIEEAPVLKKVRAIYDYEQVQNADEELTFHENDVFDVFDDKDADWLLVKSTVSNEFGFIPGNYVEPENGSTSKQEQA

T18: Cyk3, Q07533
T18 sequence (Q07533 1-83, looked up): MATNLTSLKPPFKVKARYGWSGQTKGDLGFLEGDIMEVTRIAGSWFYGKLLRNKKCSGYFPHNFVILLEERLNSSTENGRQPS

T19: Boi2, P39969
T19 sequence (P39969 32-116, looked up): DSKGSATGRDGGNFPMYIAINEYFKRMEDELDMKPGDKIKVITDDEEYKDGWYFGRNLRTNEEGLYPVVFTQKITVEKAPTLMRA

T20: Cdc25, P04821
T20 sequence (P04821 50-136, looked up): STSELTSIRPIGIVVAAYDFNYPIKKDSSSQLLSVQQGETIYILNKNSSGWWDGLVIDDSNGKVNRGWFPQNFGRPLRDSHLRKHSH

T21: Pin3, Q06449
T21 sequence (Q06449 53-122, looked up): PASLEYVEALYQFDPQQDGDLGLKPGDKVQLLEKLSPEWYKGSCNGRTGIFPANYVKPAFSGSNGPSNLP


How the values were obtained:
Assay in all cases: SPOT array
Hse1, P38753 = molecular target: T1, Hse1, P38753; details: median of control spots 1727
Rvs167, P39743 = details: median of control spots 2707
Bud14, P27637 = molecular target: T2, Bud14, P27637; details: median of control spots 956
Lsb1, P53281 = molecular target: T3, Lsb1, P53281; details: median of control spots 388
Nbp2, Q12163 = molecular target: T4, Nbp2, Q12163; details: median of control spots 357
Abp1, P15891 = molecular target: T5, Abp1, P15891; details: median of control spots 935
Fus1, P11710 = molecular target: T6, Fus1, P11710; details: median of control spots 1200
Bem1-2, P29366 = details: median of control spots 4347
Myo5, Q04439 = molecular target: T7, Myo5, Q04439; details: median of control spots 471
Sho1, P40073 = details: median of control spots 1148
Lsb3, P43603 = molecular target: T8, Lsb3, P43603; details: median of control spots 406
Boi1, P38041 = molecular target: T9, Boi1, P38041; details: median of control spots 1162
Bbc1, P47068 = molecular target: T10, Bbc1, P47068; details: median of control spots 796
Hof1, Q05080 = molecular target: T11, Hof1, Q05080; details: median of control spots 4086
Bzz1-2, P38822 = molecular target: T12, Bzz1-2, P38822; details: median of control spots 4538
Bem1-1, P29366 = details: median of control spots 4282
Pex13, P80667 = molecular target: T13, Pex13, P80667; details: median of control spots 1341
Lsb4, P32793 = molecular target: T14, Lsb4, P32793; details: median of control spots 397
Sla1-3, P32790 = molecular target: T15, Sla1-3, P32790; details: median of control spots 5475
Bzz1-1, P38822 = molecular target: T16, Bzz1-1, P38822; details: median of control spots 4446
Sla1-2, P32790 = molecular target: T17, Sla1-2, P32790; details: median of control spots 712
Cyk3, Q07533 = molecular target: T18, Cyk3, Q07533; details: median of control spots 1451
GST = details: median of control spots 978
Boi2, P39969 = molecular target: T19, Boi2, P39969; details: median of control spots 1161
Cdc25, P04821 = molecular target: T20, Cdc25, P04821; details: median of control spots 969
Pin3, Q06449 = molecular target: T21, Pin3, Q06449; details: median of control spots 2171
Myo3, P36006 = details: median of control spots 468

Sho1, P40073, sequence (P40073 287-367): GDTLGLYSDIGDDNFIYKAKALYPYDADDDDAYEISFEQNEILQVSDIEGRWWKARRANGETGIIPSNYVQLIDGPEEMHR
Bem1-2, P29366, sequence (P29366 139-227): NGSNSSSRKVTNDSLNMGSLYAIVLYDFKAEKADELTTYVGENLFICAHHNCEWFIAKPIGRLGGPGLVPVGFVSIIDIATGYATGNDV
Rvs167, P39743, sequence (P39743 419-482): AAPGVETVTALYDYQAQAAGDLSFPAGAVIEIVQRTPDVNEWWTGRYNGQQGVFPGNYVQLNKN
Bem1-1, P29366, sequence (P29366 55-141): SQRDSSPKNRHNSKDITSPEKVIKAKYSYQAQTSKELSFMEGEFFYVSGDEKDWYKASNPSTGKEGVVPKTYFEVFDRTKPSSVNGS

Binder | SPOT intensity (Hse1, P38753) | SPOT intensity (Rvs167, P39743) | SPOT intensity (Bud14, P27637) | SPOT intensity (Lsb1, P53281) | SPOT intensity (Nbp2, Q12163) | SPOT intensity (Abp1, P15891) | SPOT intensity (Fus1, P11710) | SPOT intensity (Bem1-2, P29366) | SPOT intensity (Myo5, Q04439) | SPOT intensity (Sho1, P40073) | SPOT intensity (Lsb3, P43603) | SPOT intensity (Boi1, P38041) | SPOT intensity (Bbc1, P47068) | SPOT intensity (Hof1, Q05080) | SPOT intensity (Bzz1-2, P38822) | SPOT intensity (Bem1-1, P29366) | SPOT intensity (Pex13, P80667) | SPOT intensity (Lsb4, P32793) | SPOT intensity (Sla1-3, P32790) | SPOT intensity (Bzz1-1, P38822) | other results
NNNKMRPHLPPLSSG | 24 | 0 | 35 | 81 | 12 | 59 | 1 | 16 | 7 | 61 | 1 | 3 | 0 | 1460 | 62 | 1 | 84 | 22 | 0 | 1 | SPOT intensity (Sla1-2, P32790): 0; SPOT intensity (Cyk3, Q07533): 0; SPOT intensity (GST): 0; SPOT intensity (Boi2, P39969): 0; SPOT intensity (Cdc25, P04821): 22; SPOT intensity (Pin3, Q06449): 85; SPOT intensity (Myo3, P36006): 18
DGNEEKPLLPTRPNK | 1 | 263 | 0 | 174 | 0 | 0 | 0 | 0 | 0 | 0 | 493 | 0 | 43 | 23 | 0 | 0 | 81 | 281 | 5 | 0 | SPOT intensity (Sla1-2, P32790): 0; SPOT intensity (Cyk3, Q07533): 0; SPOT intensity (GST): 0; SPOT intensity (Boi2, P39969): 0; SPOT intensity (Cdc25, P04821): 0; SPOT intensity (Pin3, Q06449): 0; SPOT intensity (Myo3, P36006): 0
NILKRRPLKLEAPSK | 302 | 0 | 19 | 2 | 0 | 92 | 37 | 0 | 0 | 65 | 0 | 7 | 272 | 14 | 18 | 0 | 2 | 1 | 28 | 2 | SPOT intensity (Sla1-2, P32790): 0; SPOT intensity (Cyk3, Q07533): 4; SPOT intensity (GST): 0; SPOT intensity (Boi2, P39969): 3; SPOT intensity (Cdc25, P04821): 297; SPOT intensity (Pin3, Q06449): 1; SPOT intensity (Myo3, P36006): 4
FSRRQSMDIPSKNRN | 8 | 0 | 6 | 200 | 2 | 127 | 0 | 0 | 83 | 60 | 22 | 0 | 7 | 0 | 26 | 7 | 61 | 84 | 1 | 1 | SPOT intensity (Sla1-2, P32790): 27; SPOT intensity (Cyk3, Q07533): 0; SPOT intensity (GST): 1; SPOT intensity (Boi2, P39969): 1; SPOT intensity (Cdc25, P04821): 16; SPOT intensity (Pin3, Q06449): 195; SPOT intensity (Myo3, P36006): 44
